Experimental data from patent publication US20050214798A1 (WISTAR INSTITUTE OF ANATOMY AND BIOLOGY, published 2005).

Molecular target: T1, Bin2 (Bridging INtegrator-2) (human, UniProt Q9UBW5 1-565)
T1 construct: In vitro translated in the presence of 35S-methionine from the full-length cDNA
T1 sequence: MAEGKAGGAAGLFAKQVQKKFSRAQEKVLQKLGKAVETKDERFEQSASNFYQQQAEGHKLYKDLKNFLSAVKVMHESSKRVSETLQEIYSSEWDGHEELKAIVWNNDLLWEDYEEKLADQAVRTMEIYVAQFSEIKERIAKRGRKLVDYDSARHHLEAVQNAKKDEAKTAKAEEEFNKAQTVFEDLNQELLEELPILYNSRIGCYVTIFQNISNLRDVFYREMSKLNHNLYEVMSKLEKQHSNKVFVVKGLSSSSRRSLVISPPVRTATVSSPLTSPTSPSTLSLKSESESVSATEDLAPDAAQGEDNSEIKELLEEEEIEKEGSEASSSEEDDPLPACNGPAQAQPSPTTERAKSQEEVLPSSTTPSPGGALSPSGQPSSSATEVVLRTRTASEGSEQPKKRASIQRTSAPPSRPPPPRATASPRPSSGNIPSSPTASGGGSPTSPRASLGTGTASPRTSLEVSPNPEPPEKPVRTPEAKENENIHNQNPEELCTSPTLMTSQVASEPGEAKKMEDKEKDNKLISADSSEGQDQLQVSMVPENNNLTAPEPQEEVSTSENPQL
Assay: co-immunoprecipitation of in vitro translated proteins, deletion mutant
Source text: Stable complexes have been reported in yeast between RVS161 and RVS167 and in brain between amphiphysin and brain-specific splice isoforms of Bin1 [Navarro et al., Biochim. Biophys. Acta, 1343: 187-192 (1997); Wigge et al., Mol. Biol. Cell 8: 2003-2015 (1997)]. Since Bin1 is expressed in hematopoietic cells, whether Bin2 and Bin1 could also form a stable biochemical complex was investigated. For coimmunoprecipitation experiments, Bin1 was in vitro translated in the presence or absence of Bin2 and complex formation was assessed by SDS-PAGE and fluorography after immunoprecipitation with the Bin1 monoclonal antibody 99D [Wechsler-Reya et al., Cancer Res. 57: 3258-3263 (1997)].
Other deletion mutants of Bin1 lacking the so-called Unique central region, the Myc-binding domain, or the SH3 domain, interacted with Bin2 with the same efficiency as wild-type Bin1 (data not shown). It was concluded that Bin1 and Bin2 formed a BAR domain-dependent complex in cells.

B1: Bin1 deletion mutant Δ1-122 (other)
chain: LLTMDTYLGQFPDIKSRIAKRGRKLVDYDSARHHYESLQTAKKKDEAKIAKAEEELIKAQKVFEEMNVDLQEELPSLWNSRVGFYVNTFQSIAGLEENFHKEMSKLNQNLNDVLVGLEKQHGSNTFTVKA
B1: no binding.
